Results on three molecules are retold here after US20180362643A1 (Amgen, published 2018).

Ends that are not written are not given here.

The target in assay [1] is T1, PACAP38 peptide fragment 6-35 (human).
T1 construct: also called peptide No. 4
T1 peptide: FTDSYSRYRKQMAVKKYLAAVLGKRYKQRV
Nature of the assay: SPR (Biacore 3000), solution competition: antibody pre-incubated 2 h with the peptide at 1:200 molar ratio (Ab:peptide), then injected over immobilised full-length PACAP38; readout % inhibition of antibody binding (filing counts >50 % as reactive). On the technique in general: SPR reads the build-up and loss of mass on a sensor chip optically.

Assay [2] addresses T2, PACAP38 peptide fragment 11-27 (human).
T2 construct: also called peptide No. 8
T2 peptide: SRYRKQMAVKKYLAAVL
The description is as above.

The target in assay [3] is T3, PACAP38 peptide fragment 26-33 (human).
T3 construct: also called peptide No. 2
T3 peptide: VLGKRYKQ
The assay is described as follows: SPR (Biacore 3000) solution competition against immobilised PACAP38.

Assay [4] addresses T4, PACAP38 peptide fragment 27-38 (human, ends and bridges not checked).
T4 construct: also called peptide No. 6
T4 peptide: LGKRYKQRVKNK
The assay is described as above.

The target in assay [5] is T5, amino terminal PACAP38 peptide (amino acids 1-13) (human).
T5 construct: also called N-terminal Peptide; N-terminal PACAP peptide
T5 peptide: HSDGIFTDSYSRY
The assay is described as follows: ELISA screen of B-cell culture supernatant; N-terminal peptide at 500 ng/mL.

Assay [6] addresses T6, 31-38 (ends and bridges not checked).
T6 construct: also called PACAP38 peptide fragment 31-38; peptide No. 5
T6 peptide: YKQRVKNK
Nature of the assay: SPR (Biacore 3000), solution competition: antibody pre-incubated 2 h with the peptide at 1:200 molar ratio (Ab:peptide), then injected over immobilised full-length PACAP38; readout % inhibition of antibody binding (filing counts >50 % as reactive).

Assay [7] deals with T7, 30-37.
T7 construct: also called PACAP38 peptide fragment 30-37; peptide No. 19
T7 peptide: RYKQRVKN
The description is as above.

B1: mAb6 (antibody, V domains shown)
VH: QLEESGGGLVQPGASLTLTCTTSGFSLSDNYLCWVRQAPGRGLEWVACIGIVLRSTGATYYASWAEGRFTISKTSPTTVTLEMTSLTAADTATYFCALDLGYGGPLWGPGTLVTVSS
VL: AQVLTQTPASVSAAVGGTVTINCQASQSVYNNKNLAWYQQKPGQPPKLLIYFSSTLASGVPSRFRGSGSGTQFTLTISGVQCGDAATYYCLGEFGSIWAFGGGTEVVVKG
notes: Rabbit monoclonal antibody (SLAM), recombinant; also called monoclonal anti-PACAP antibody 6; 6 (c55)
As for B1, the binding result in assay [1] and in assay [2] was “binds” each time.

B2: mAb5 (antibody, V domains shown)
VH: QSVEESGGRLVTPGTPLTLTCTVSGFSLSTYNMCWVRQAPGKGLEWVGFINSDDSAYYASWAKGRFTFSKTSTTVDLKIASPTTEDTATYFCARYDWDYYYSRLDLWGPGTLVTVSS
VL: DIVLTQTPASVSAAVGGTVSISCQSSESVYNNNYLSWFQQKPGQPPKLLIYGASTLASGVPSRFEGSGSGTQFTLTISDVQCDDAATYYCLGDYIIIENIFGGGTEVVVKG
notes: Rabbit monoclonal antibody (SLAM), recombinant; also called monoclonal anti-PACAP antibody 5; 5 (c71)
For the molecule B2, the binding result in assay [3] and in assay [4] was “no binding (tested: 1:200 molar ratio (Ab: peptide fragment))” in each case.

B3: mAb2 (antibody, V domains shown)
VH: QSLEESGGGLVQPEGSLTLTCTASGFSFNSSSYMCWVRQAPGKGLEWIGCIFTGSSGNTYYATWAQGRFTISKTSTTVTLEMTSLTAADTATYFCARDRAYFLVGYFYATYYFDLWGPGTLVTVSS
VL: DVVMTQTPSPVSAQVGGTVTINCQASESIDSDLSWYQQKPGQPPKLLIYRTFTLESGVPSRFKGSGSGTDYTLTISDLECADAAIYYCQCTDGSSISGSYGWDAFGGGTEVVVKG
notes: Rabbit monoclonal antibody (SLAM), recombinant; also called monoclonal anti-PACAP antibody 2; 2 (c81)
Turning to B3, the “Optical Density” value in assay [5] came to 0.06 OD. Besides, the binding result in assay [6] and in assay [7] was “binds” in each case.
